Values joined by “and” are separate entries in the source; they are usually repeats but may differ in a detail not shown here. Equal entries are not always repeated.
Columns and labels:
[1] = molecular target: T1, Dbp2 (full-length, Dbp2^1-546) (Saccharomyces cerevisiae, UniProt P24783, C168A/C206A/C219A); format: binding; conditions: labelled protein immobilised via C-terminal His-tag antibody; no RNA; MgCl2 2 mM, pH 7.5
T1 construct: full-length 1-546; E. coli C2566H; His6-MBP tag cleaved with TEV, SP ion exchange; the smFRET mutant C141/C373 carries a C-terminal His6 tag

[2] = molecular target: T2, Dbp2 (full-length, Dbp2^1-546) (Saccharomyces cerevisiae, UniProt P24783); assay: coupled spectrophotometric ATPase assay; format: biochemical; conditions: RNA-dependent: ssRNA R-S22 or RNA/DNA duplex R/D-D16; MgCl2 2 mM, ATP 1.5 mM, pH 7.5, 24 °C; turnover only
T2 construct: full-length 1-546; E. coli C2566H; His6-MBP tag cleaved with TEV, SP ion exchange; the smFRET mutant C141/C373 carries a C-terminal His6 tag

[3] = molecular target: T3, Dbp2 (full-length, Dbp2^1-546) (Saccharomyces cerevisiae, UniProt P24783, R495A/R496A); assay: ATPase activity assay kit (free phosphate, […] nm); format: biochemical; conditions: 16 bp RNA/DNA duplex 0.75 μM; MgCl2 2 mM, ATP 1.5 mM, pH 7.5, 24 °C; turnover only
T3 construct: full-length 1-546; E. coli C2566H; His6-MBP tag cleaved with TEV, SP ion exchange; the smFRET mutant C141/C373 carries a C-terminal His6 tag

[4] = molecular target: Dbp2 WT (Saccharomyces cerevisiae, UniProt P24783 1-546); assay: fluorescence anisotropy; Anisotropy: 25 mM Tris-HCl pH 7.5, 20 mM NaCl/30 mM KCl, 2 mM MgCl2, 1 mM DTT, 5 nM labelled nucleic acid, 25 C, 5 min; EMSA: 25 mM Tris-HCl pH 7.5, 30 mM KCl; conditions: protein: recombinant, tags: His6-MBP removed by TEV
[5] = molecular target: Dbp2 1-530 (Saccharomyces cerevisiae, UniProt P24783 1-530); assay: as above; conditions: protein: recombinant, tags: His6-MBP removed by TEV, label: 3' FAM
[6] = molecular target: T4, MBP-Dbp2 1-52 (Saccharomyces cerevisiae, UniProt P24783 1-52); assay: as above; conditions: protein: recombinant; tags: MBP fusion; label: 3' FAM; G4
T4 sequence: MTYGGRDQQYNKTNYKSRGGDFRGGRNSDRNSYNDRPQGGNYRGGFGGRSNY

[7] = molecular target: Dbp2 1-524 (Saccharomyces cerevisiae, UniProt P24783 1-524); assay: as above; conditions: protein: recombinant, tags: His6-MBP removed by TEV, label: 3' FAM
[8] = molecular target: T5, MBP-Dbp2 497-546 (Saccharomyces cerevisiae, UniProt P24783 497-546); assay: as above; conditions: protein: recombinant; tags: MBP fusion; label: 3' FAM; G4
T5 chain: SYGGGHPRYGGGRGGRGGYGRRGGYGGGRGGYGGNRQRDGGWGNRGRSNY

[9] = molecular target: Dbp2 1-514 (Saccharomyces cerevisiae, UniProt P24783 1-514); assay: as above; conditions: protein: recombinant, tags: His6-MBP removed by TEV, label: 3' FAM
[10] = molecular target: Dbp2 53-546 (Saccharomyces cerevisiae, UniProt P24783 53-546); assay: as above; conditions: protein: recombinant; tags: His6-MBP removed by TEV; label: 3' FAM; G4
[11] = molecular target: Dbp2 53-496 (Saccharomyces cerevisiae, UniProt P24783 53-496); assay: as above; conditions: protein: recombinant, tags: His6-MBP removed by TEV, label: 3' FAM
[12] = molecular target: Dbp2 118-466 (Saccharomyces cerevisiae, UniProt P24783 118-466); assay: as above; conditions: protein: recombinant, label: 3' FAM
[13] = label: 3' FAM on DNA strand, blunt

Chain of Dbp2 WT (P24783 whole entry): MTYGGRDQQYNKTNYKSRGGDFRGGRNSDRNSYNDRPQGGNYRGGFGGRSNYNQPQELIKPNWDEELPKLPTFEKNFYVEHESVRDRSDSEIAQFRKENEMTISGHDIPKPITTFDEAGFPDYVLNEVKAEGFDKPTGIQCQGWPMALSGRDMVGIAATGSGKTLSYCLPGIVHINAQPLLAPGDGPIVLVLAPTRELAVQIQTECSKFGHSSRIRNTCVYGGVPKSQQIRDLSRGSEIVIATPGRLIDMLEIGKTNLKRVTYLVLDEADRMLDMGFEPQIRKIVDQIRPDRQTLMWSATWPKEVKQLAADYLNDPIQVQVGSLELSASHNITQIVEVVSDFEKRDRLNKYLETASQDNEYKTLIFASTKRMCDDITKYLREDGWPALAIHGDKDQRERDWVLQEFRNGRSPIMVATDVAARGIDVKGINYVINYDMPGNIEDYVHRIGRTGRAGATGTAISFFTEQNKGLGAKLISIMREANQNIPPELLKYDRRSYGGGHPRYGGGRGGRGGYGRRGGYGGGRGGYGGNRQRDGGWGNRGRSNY
Chain of Dbp2 53-496 (P24783 53-496): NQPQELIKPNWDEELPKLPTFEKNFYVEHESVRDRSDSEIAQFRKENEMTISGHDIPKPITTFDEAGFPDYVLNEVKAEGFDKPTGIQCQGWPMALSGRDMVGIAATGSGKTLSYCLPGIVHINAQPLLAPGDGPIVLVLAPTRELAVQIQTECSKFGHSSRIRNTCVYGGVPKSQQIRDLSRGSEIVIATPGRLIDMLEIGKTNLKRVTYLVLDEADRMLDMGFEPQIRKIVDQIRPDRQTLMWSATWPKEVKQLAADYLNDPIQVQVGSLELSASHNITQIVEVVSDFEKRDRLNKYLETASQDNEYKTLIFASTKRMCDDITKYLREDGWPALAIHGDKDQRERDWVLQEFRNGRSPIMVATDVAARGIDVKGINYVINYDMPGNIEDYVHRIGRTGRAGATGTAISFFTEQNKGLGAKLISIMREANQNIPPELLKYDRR
Chain of Dbp2 118-466 (P24783 118-466): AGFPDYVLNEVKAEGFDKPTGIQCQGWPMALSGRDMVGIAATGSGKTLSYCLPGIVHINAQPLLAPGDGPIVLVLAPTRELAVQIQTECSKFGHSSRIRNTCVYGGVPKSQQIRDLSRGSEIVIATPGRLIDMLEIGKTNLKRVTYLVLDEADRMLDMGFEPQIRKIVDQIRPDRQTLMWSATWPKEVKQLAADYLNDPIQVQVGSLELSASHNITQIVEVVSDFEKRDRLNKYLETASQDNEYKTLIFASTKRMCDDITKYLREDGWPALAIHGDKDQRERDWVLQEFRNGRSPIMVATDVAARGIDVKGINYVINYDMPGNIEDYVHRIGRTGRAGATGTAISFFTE
Chain of Dbp2 1-514 (P24783 1-514): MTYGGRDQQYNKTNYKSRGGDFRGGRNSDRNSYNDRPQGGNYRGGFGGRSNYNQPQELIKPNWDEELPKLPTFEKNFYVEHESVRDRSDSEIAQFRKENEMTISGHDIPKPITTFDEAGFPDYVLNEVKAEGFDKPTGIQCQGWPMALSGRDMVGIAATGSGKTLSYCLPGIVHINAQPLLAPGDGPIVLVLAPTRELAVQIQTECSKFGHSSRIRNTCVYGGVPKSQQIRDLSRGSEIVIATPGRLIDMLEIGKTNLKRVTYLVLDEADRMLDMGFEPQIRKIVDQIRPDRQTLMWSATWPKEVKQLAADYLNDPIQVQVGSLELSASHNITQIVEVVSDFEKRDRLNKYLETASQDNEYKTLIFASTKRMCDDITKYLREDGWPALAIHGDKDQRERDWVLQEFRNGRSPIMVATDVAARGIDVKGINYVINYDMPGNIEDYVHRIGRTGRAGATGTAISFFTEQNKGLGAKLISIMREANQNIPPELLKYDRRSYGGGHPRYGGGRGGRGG
T1 sequence (P24783 whole entry C168A/C206A/C219A): as the sequence (P24783 whole entry) above, with C168A, C206A, C219A counted along it
Chain of Dbp2 53-546 (P24783 53-546): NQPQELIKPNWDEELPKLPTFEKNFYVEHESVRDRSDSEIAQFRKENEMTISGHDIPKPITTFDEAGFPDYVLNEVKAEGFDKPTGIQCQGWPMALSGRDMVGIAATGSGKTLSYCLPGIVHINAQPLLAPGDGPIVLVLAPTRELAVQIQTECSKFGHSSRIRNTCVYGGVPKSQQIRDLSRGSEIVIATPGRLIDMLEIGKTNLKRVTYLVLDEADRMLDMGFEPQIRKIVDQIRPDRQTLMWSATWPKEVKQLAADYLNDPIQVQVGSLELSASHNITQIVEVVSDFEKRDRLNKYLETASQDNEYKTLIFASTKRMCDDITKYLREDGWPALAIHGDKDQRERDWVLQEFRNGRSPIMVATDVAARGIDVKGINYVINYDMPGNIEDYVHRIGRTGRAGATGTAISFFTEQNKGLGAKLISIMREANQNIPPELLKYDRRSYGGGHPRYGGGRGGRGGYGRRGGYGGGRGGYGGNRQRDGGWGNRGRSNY
T3 sequence (P24783 whole entry R495A/R496A): as the sequence (P24783 whole entry) above, with R495A, R496A counted along it

`Nc1ncnc2c1ncn2[C@@H]1O[C@H](COP(=O)(O)OP(=O)(O)O)[C@@H](O)[C@H]1O` [ADP] was tested, and the “single-molecule FRET, Cy3/Cy5 on C141 and C373” value [1] was “The FRET distribution of Dbp2-ADP was similar to that of Dbp2-ADP·AlF4 except for a decrease”.

For `Nc1ncnc2c1ncn2[C@@H]1O[C@H](COP(=O)(O)OP(=O)(O)OP(=O)(O)O)[C@@H](O)[C@H]1O` [ATP], the “coupled spectrophotometric ATPase assay” value [2] was “The RNA-dependent ATPase activities of Dbp2 were measured using a coupled spectrophotometric ATPase assay” and the “ATPase activity assay kit (free phosphate, 620 nm)” value [3] was “the R495A/R496A double mutant also showed increased ATPase activity in vitro”.

B1: D-D12 (dsDNA)
DNA 1: CGTCGAGCAGAG
DNA 2: CTCTGCTCGACG
B1 showed a Kd ([4]; label: 3' FAM on strand 2, blunt) of 178 ± 6.2 nM.

B2: D-S12 (ssDNA)
DNA: ACGGATGTCTAA
B2 gave a Kd ([4]; label: 3' FAM) of 105 ± 1.9 nM.

B3: R/D-D16 (DNA:RNA)
RNA: GAUCGUGACAUCCUUA
DNA: TAAGGATGTCACGATC
For B3, the Kd [4, 13] was 40.6 ± 4.65 nM.

B4: R-G4Tel (structured_RNA)
RNA: GGGUUAGGGUUAGGGUUAGGG
B4 gave a Kd ([5]; G4) of 19.2 ± 2.17 nM, a Kd [6] of 26 ± 1.5 nM and a Kd ([7]; G4) of 27.9 ± 2.66 nM. The Kd [8] was 36.3 ± 5.1 nM, the Kd ([9]; G4) was 63.5 ± 8.45 nM and the Kd [10] was 18.8 ± 0.56 nM. For the same molecule, the binding result ([11]; G4) was “no binding”, the binding result ([12]; G4) was “no binding” and the Kd ([4]; label: 3' FAM, G4) was 12.2 nM and 12.7 nM.

B5: R-S22 (ssRNA)
RNA: UUUUUUUUUUCUCUGCUCGACG
B5 showed a Kd [5] of 33.7 ± 6.63 nM, a Kd [7] of 38.8 ± 4.35 nM and a Kd [9] of 214 ± 18.4 nM. The binding result [11] was “no binding”, the binding result [12] was “no binding” and the Kd ([4]; label: 3' FAM) was 15.8 ± 0.66 nM.

B6: R/D-D12 (DNA:RNA)
RNA: CGUCGAGCAGAG
DNA: CTCTGCTCGACG
With B6 the Kd [4, 13] was 73.9 ± 3.93 nM.

B7: R-S12 (ssRNA)
RNA: CUCUGCUCGACG
For B7, the Kd ([4]; label: 3' FAM) was 72.1 ± 5.09 nM.
